In patent US20050014224A1 (Pfizer, published 2005):

B2: mouse GITR (glucocorticoid-induced TNF receptor) (receptor, UniProt O35714 20-228, looked up)
chain: QPSVVEEPGCGPGKVQNGSGNNTRCCSLYAPGKEDCPKERCICVTPEYHCGDPQCKICKHYPCQPGQRVESQGDIVFGFRCVACAMGTFSAGRDGHCRLWTNCSQFGFLTMFPGNKTHNAVCIPEPLPTEQYGHLTVIFLVMAACIFFLTTVQLGLHIWQLRRQHMCPRETQPFAEVQLSAEDACSFQFPEEERGEQTEEKCHLGGRWP
notes: whole, on cells; endogenous on mouse T cells and HT-2 cells in the functional assays; also called cell-surface GITR

How the values were obtained:
[1] = molecular target: mouse GITRL expressed on cells (mouse) (UniProt Q7TS55); assay: flow cytometry on GITRL-Cos cells, FITC donkey antihuman antibody
[2] = molecular target: B2; assay: cell-based or functional assay
[3] = molecular target: T1, control mouse IL-21 receptor fused to the FLAG epitope, expressed on Cos cells (mouse, UniProt Q9JHX3 20-529); assay: cell-cell binding by flow cytometry (PE anti-FLAG / FITC anti-GITR)
T1 construct: whole, on cells; also called IL-21R-Flag-Cos
Description: Cell-cell interaction was detected by flow cytometry using phycoerythrin-labeled anti-Flag antibody (PE-FLAG) and fluorescein isothiocyanate (FITC)-labeled anti-GITR.

T1 sequence (Q9JHX3 20-529): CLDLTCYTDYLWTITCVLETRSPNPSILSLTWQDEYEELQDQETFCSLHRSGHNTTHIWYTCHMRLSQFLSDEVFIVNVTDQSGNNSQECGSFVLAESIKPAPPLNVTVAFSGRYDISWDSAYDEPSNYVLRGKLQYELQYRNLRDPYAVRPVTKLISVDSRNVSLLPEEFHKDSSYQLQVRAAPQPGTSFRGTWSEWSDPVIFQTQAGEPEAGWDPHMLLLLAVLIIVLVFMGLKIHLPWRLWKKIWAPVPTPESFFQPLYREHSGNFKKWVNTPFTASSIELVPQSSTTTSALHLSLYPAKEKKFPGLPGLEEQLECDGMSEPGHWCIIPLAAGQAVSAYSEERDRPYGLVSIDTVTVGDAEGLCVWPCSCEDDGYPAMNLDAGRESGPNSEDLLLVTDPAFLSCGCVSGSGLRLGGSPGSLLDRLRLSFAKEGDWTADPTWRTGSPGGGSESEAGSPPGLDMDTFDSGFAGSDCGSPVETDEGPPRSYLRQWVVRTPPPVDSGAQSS

Q: Which FITC-Ab binding [1] does the source give for control human IgG (antibody) here?
A: 7.9%

Q: Which FITC-Ab binding [1] does the source give for “recombinant GITR fused to the Fc portion of human IgG (Fc fusion)” here?
A: 28.8%

Q: What about the fold increase in FITC-Ab binding compared to control HIgG [1] of the same molecule?
A: 3.6 fold

B1: mouse GITRL expressed on cells (ligand)
chain: MEEMPLRESSPQRAERCKKSWLLCIVALLLMLLCSLGTLIYTSLKPTAIESCMVKFELSSSKWHMTSPKPHCVNTTSDGKLKILQSGTYLIYGQVIPVDKKYIKDNAPFVVQIYKKNDVLQTLMNDFQILPIGGVYELHAGDNIYLKFNSKDHIQKNNTYWGIILMPDLPFIS
Q: Which “^3H-thymidine incorporation of CD4^+CD25^+ T cells, fold increase over unmodified YB2/0 cells (˜50,000 cells)” value [2] does the source give for B1 here?
A: ~15 fold

Q: Does B2 bind [3]?
A: no binding
